B1: Phosphocarrier protein HPr, P08877 (parent)
chain: MAQKTFKVTADSGIHARPATVLVQTASKYDADVNLEYNGKTVNLKSIMGVMSLGIAKGAEITISASGADENDALNALEETMKSEGLGE

Variants of: B1
Details: Bacillus subtilis (strain 168), pH 7, CD, sodium phosphate 10 mM, reversible: Yes, structure 2HPR, whole UniProt chain shown; for ddG of mutation (higher = less stable) / denaturant m value / unfolding free energy: 25 °C; for Tm / change of melting temperature, mutant - wild type (higher = more stable) / unfolding enthalpy (van 't Hoff): Thermal

Row | Variant | ddG of mutation (higher = less stable) (GdnHCl) [kcal/mol] | denaturant m value (GdnHCl) [kcal/mol/M] | unfolding free energy (GdnHCl) [kcal/mol] | Tm [°C] | change of melting temperature, mutant - wild type (higher = more stable) [°C] | unfolding enthalpy (van 't Hoff) [kcal/mol] | ddG of mutation (higher = less stable) (Urea) [kcal/mol] | denaturant m value (Urea) [kcal/mol/M] | unfolding free energy (Urea) [kcal/mol]
1 | A2R N71E | -1.5 | 3.39 | 4.9 | 83.1 | 10.1 | 91 | – | – | –
2 | A2K N71E | -1.1 | 3.37 | 4.5 | 79.6 | 6.6 | 85 | -1.1 | 0.95 | 6.1

Reference: FireProtDB (doi:10.1021/bi060038+)
